{
  "source": "patent US12173061B2",
  "about": "“Compositions and methods for treatment of chronic lung diseases” (Board of Regents, The University of Texas System, priority 2021, dated 2024)",
  "molecules": {"B1": {"name": "U5A protein: recombinant full length human UNC5A protein (SEQ ID NO: 5) (protein, listed as Homo sapiens)", "chain": "MAVRPGLWPALLGIVLAAWLRGSGAQQSATVANPVPGANPDLLPHFLVEPEDVYIVKNKPVLLVCKAVPATQIFFKCNGEWVRQVDHVIERSTDGSSGLPTMEVRINVSRQQVEKVFGLEEYWCQCVAWSSSGTTKSQKAYIRIAYLRKNFEQEPLAKEVSLEQGIVLPCRPPEGIPPAEVEWLRNEDLVDPSLDPNVYITREHSLVVRQARLADTANYTCVAKNIVARRRSASAAVIVYVDGSWSPWSKWSACGLDCTHWRSRECSDPAPRNGGEECQGTDLDTRNCTSDLCVHTASGPEDVALYVGLIAVAVCLVLLLLVLILVYCRKKEGLDSDVADSSILTSGFQPVSIKPSKADNPHLLTIQPDLSTTTTTYQGSLCPRQDGPSPKFQLTNGHLLSPLGGGRHTLHHSSPTSEAEEFVSRLSTQNYFRSLPRGTSNMTYGTFNFLGGRLMIPNTGISLLIPPDAIPRGKIYEIYLTLHKPEDVRLPLAGCQTLLSPIVSCGPPGVLLTRPVILAMDHCGEPSPDSWSLRLKKQSCEGSWEDVLHLGEEAPSHLYYCQLEASACYVFTEQLGRFALVGEALSVAAAKRLKLLLFAPVACTSLEYNIRVYCLHDTHDALKEVVQLEKQLGGQLIQEPRVLHFKDSYHNLRLSIHDVPSSLWKSKLLVSYQEIPFYHIWNGTQRYLHCTFTLERVSPSTSDLACKLWVWQVEGDGQSFSINFNITKDTRFAELLALESEAGVPALVGPSAFKIPFLIRQKIISSLDPPCRRGADWRTLAQKLHLDSHLSFFASKPSPTAMILNLWEARHFPNGNLSQLAAAVAGLGQPDAGLFTVSEAEC"}, "B2": {"name": "A5 protein: recombinant full length human ALG5 protein (SEQ ID NO: 9) (protein, listed as Homo sapiens)", "chain": "MAPLLLQLAVLGAALAAAALVLISIVAFTTATKMPALHRHEEEKFFLNAKGQKETLPSIWDSPTKQLSVVVPSYNEEKRLPVMMDEALSYLEKRQKRDPAFTYEVIVVDDGSKDQTSKVAFKYCQKYGSDKVRVITLVKNRGKGGAIRMGIFSSRGEKILMADADGATKFPDVEKLEKGLNDLQPWPNQMAIACGSRAHLEKESIAQRSYFRTLLMYGFHFLVWFLCVKGIRDTQCGFKLFTREAASRTFSSLHVERWAFDVELLYIAQFFKIPIAEIAVNWTEIEGSKLVPFWSWLQMGKDLLFIRLRYLTGAWRLEQTRKMN"}, "B3": {"name": "A5^ECD: recombinant extracellular domain of A5 (ECD of hALG5) (protein, listed as Homo sapiens)", "chain": "MTTATKMPALHRHEEEKFFLNAKGQKETLPSIWDSPTKQLSVVVPSYNEEKRLPVMMDEALSYLEKRQKADPAFTYEVIVVDDGSKDQTSKVAFKYCQKYGSDKVRVITLVKNRGKGGAIRMGIFSSRGEKILMADADGATKFPDVEKLEKGLNDLQPWPNQMAIACGSRAHLEKESIAQRSYFRTLLMYGFHFLVWFLCVKGIRDTQCGFKLFTREAASRTFSSLHVERWAFDVELLYIAQFFKIPIAEIAVNWTEIEGSKLVPFWSWLQMGKDLLFIRLRYLTGAWRLEQTRKMN"}},
  "system": "BLM-induced pulmonary fibrosis",
  "test": "BLM-induced established pulmonary fibrosis in mice, treatment d14-d21",
  "assay_type": "in vivo",
  "details": "for BLM-induced pulmonary fibrosis (overall): mice, 1.0 U/kg BLM IT, protein 7.5 mg/kg/d IP daily for 7 days starting d14; for BLM-induced pulmonary fibrosis (overall) / lung compliance / lung elastance: d21; for BLM-induced fibrogenic marker proteins (Col1, FN, TN-C, α-SMA) in whole lung homogenates / body weight / collagen and other extracellular matrix deposits (Trichrome staining of lung sections) / fibrogenic marker transcripts in whole lung homogenates / lung weight / lung compliance / lung elastance / whole lung total hydroxyproline: protein 7.5 mg/kg/d IP, 7 days starting d14 after BLM; for lung compliance / lung elastance: flexiVent; for whole lung total hydroxyproline: lung homogenates",
  "procedure": "FIGS. 9A-9O. M9 peptide and protein mitigated BLM-induced pulmonary fibrosis. Mice exposed to saline or 1.0 U/kg BLM by intratracheal instillation were treated with or without M9 peptide HGHVDPVKTPKI (SEQ ID NO: 4) (10 mg/kg/d) and M9 protein (SEQ ID NO: 1) 7.5 mg/kg/d) via IP injection daily for 7 days starting d14 after BLM injury. FIG. 9A: Representative micro-CT images at d21 after BLM exposure. FIG. 9B: Lung volumes were measured by quantitative-CT renditions. Lung compliance (FIG. 9C) and elastance (FIG. 9D) were measured using a flexiVent system. Lung weights (FIG. 9E) and body weights (FIG. 9F) are presented as bar graphs. Lung homogenates were tested for hydroxyproline (FIG. 9G), soluble collagen (FIG. 9H), pro-fibrogenic marker proteins (FIG. 9I) and mRNAs (FIG. 9J). Bars indicate mean±SD. Statistical significance (*P<0.05, **P<0.01, ***P<0.001 and ****P<0.0001) was assessed by one-way ANOVA with Turkey's multiple comparison. fLfs isolated from IPF lungs treated with PBS or recombinant full length M9 (rM9^FL) protein (2 μg/ml) for 48 h in vitro were tested for pro-fibrogenic proteins (FIG. 9L). fLfs (from IPF lungs) treated with PBS or extracellular domain of rM9^FL protein (rM9^ECD) as in FIG. 9L were tested for pro-fibrogenic proteins (FIG. 9N). The survival the mice treated with rM9^FL is shown FIG. 9M.\nFIGS. 10A-10K. UNC5A (“U5”) peptide/protein mitigated BLM-induced pulmonary fibrosis. Mice exposed to saline or 1.0 U/kg BLM by intratracheal instillation were treated with or without U5 peptide (50 residues, SEQ ID NO: 7) (10 mg/kg/d) and full length U5 protein (SEQ ID NO: 5) (7.5 mg/kg/d) via IP injection daily for 7 days starting d14 after BLM injury. FIG. 10A: Representative micro-CT images at d21 after BLM exposure. FIG. 10B: Lung volumes were measured by quantitative-CT renditions. Lung compliance (FIG. 10C) and elastance (FIG. 10D) were measured using a flexiVent system. Lung weights (FIG. 10E) and body weights (FIG. 10F) are presented as bar graphs. Lung homogenates were tested for hydroxyproline (FIG. 10G), soluble collagen (FIG. 10H), pro-fibrogenic marker proteins (FIG. 10I) and mRNAs (FIG. 10J). Bars indicate mean±SD. Statistical significance (*P<0.05, **P<0.01, ***P<0.001 and ****P<0.0001) was assessed by one-way ANOVA with Turkey's multiple comparison.\nFIGS. 11A-11K. ALG5 (“A5”) protein mitigated BLM-induced pulmonary fibrosis. Mice exposed to saline or 1.0 U/kg BLM by intratracheal instillation were treated with or without A5 protein (SEQ ID NO: 9) (7.5 mg/kg/d) via IP injection daily for 7 days starting d14 after BLM injury. FIG. 11A: Representative micro-CT images at d21 after BLM exposure. FIG. 11B: Lung volumes were measured by quantitative-CT renditions. Lung compliance (FIG. 11C) and elastance (FIG. 11D) were measured using a flexiVent system. Lung weights (FIG. 11E) and body weights (FIG. 11F) are presented as bar graphs. Lung homogenates were tested for hydroxyproline (FIG. 11G), soluble collagen (FIG. 11H), pro-fibrogenic marker proteins (FIG. 11I) and mRNAs (FIG. 11J). Bars indicate mean±SD. *P<0.05, **P<0.01, ***P<0.001 and ****P<0.0001 were obtained by one-way ANOVA with Turkey's multiple comparison.\nFIGS. 12A-12E. WT mice with BLM-PF were treated with or without rM9^ECD (1.5 mg/kg) via intratracheal (IT) instillation daily for 7 d starting d 14 after BLM. Survival (FIG. 12A), body weights (FIG. 12B), lung volumes (FIG. 12C) and lung weights (FIG. 12D) were measured on d 21 post-BLM. Lung homogenates were tested for soluble collagen (FIG. 12E).\nFIGS. 13A-13B. FIG. 13A: fLfs (IPF) treated with PBS or M9^mAb (2 μg/ml) or control IgG, tested for pro-fibrogenic proteins (i) and mRNAs (ii). FIG. 13B: WT mice with BLM-PF were left untreated, or intraperitoneal (IP) injected with control IgG or M9^mAb (2.5 mg/kg) daily for 7 d starting 14 d after IT BLM. Body weights (i) and total lung hydroxyproline (ii), and soluble collagen (iii) were measured. […]",
  "data": [
    {"molecule": "B1", "values": [
      {"measurement": "BLM-induced pulmonary fibrosis (overall)", "setting": "listed as Full Length U5A Protein", "value": "Mitigated"},
      {"measurement": "BLM-induced pulmonary fibrosis (overall)", "setting": "listed as U5a^FL", "value": "mitigated"},
      {"measurement": "BLM-induced pulmonary fibrosis (overall)", "setting": "listed as U5 protein", "value": "mitigated"},
      {"measurement": "BLM-induced fibrogenic marker proteins (Col1, FN, TN-C, α-SMA) in whole lung homogenates", "value": "inhibition"},
      {"measurement": "body weight", "value": "improvement"},
      {"measurement": "collagen and other extracellular matrix deposits (Trichrome staining of lung sections)", "value": "reduction"},
      {"measurement": "fibrogenic marker transcripts in whole lung homogenates", "value": "inhibition"},
      {"measurement": "lung weight", "value": "reduction"},
      {"measurement": "lung compliance", "value": "improved"},
      {"measurement": "lung elastance", "value": "improved"},
      {"measurement": "whole lung total hydroxyproline", "value": "reduction"}
    ]},
    {"molecule": "B2", "values": [
      {"measurement": "BLM-induced pulmonary fibrosis (overall)", "value": "mitigated"},
      {"measurement": "BLM-induced pulmonary fibrosis (overall)", "setting": "listed as A5^FL", "value": "mitigated"},
      {"measurement": "BLM-induced pulmonary fibrosis (overall)", "setting": "listed as ALG5 (A5) Protein", "value": "Mitigated"},
      {"measurement": "BLM-induced fibrogenic marker proteins (Col1, FN, TN-C, α-SMA) in whole lung homogenates", "value": "inhibition"},
      {"measurement": "body weight", "value": "improvement"},
      {"measurement": "collagen and other extracellular matrix deposits (Trichrome staining of lung sections)", "value": "reduction"},
      {"measurement": "fibrogenic marker transcripts in whole lung homogenates", "value": "inhibition"},
      {"measurement": "lung weight", "value": "reduction"},
      {"measurement": "lung compliance", "value": "improved"},
      {"measurement": "lung elastance", "value": "improved"},
      {"measurement": "whole lung total hydroxyproline", "value": "reduction"}
    ]},
    {"molecule": "B3", "values": [
      {"measurement": "BLM-induced pulmonary fibrosis (overall)", "value": "mitigated"}
    ]}
  ]
}
